Legend:
[1] = target: hemagglutinin on live influenza A virus, A/California/4/09 H1N1 (Influenza A virus …); assay: cell-based or functional assay
[2] = target: recombinant soluble homotrimeric HA of A/California/4/09 (H1N1) (Influenza A virus …); assay: HA microarray, BCC supernatant
[3] = target: recombinant soluble homotrimeric HA of A/Solomon Islands/3/06 (H1N1) (Influenza A virus A/Solomon …); assay: HA microarray, BCC supernatant
[4] = target: recombinant soluble homotrimeric HA of A/Japan/305/57 (H2N2) (Influenza A virus A/Japan/305/1957(H2N2)); assay: HA microarray, BCC supernatant
[5] = target: recombinant soluble homotrimeric HA of A/Wisconsin/67/05 (H3N2) (Influenza A virus …); assay: HA microarray, BCC supernatant
[6] = target: recombinant soluble homotrimeric HA of A/swine/Ontario/01911-2/99 (H4N6) (Influenza A virus …); assay: HA microarray, BCC supernatant
[7] = target: recombinant soluble homotrimeric HA of A/Vietnam/1203/04 (H5N1) (Influenza A virus …); assay: HA microarray, BCC supernatant
[8] = target: recombinant soluble homotrimeric HA of A/Indonesia/5/05 (H5N1) (Influenza A virus …); assay: HA microarray, BCC supernatant
[9] = target: recombinant soluble homotrimeric HA of A/Anhui/1/05 (H5N1) (Influenza A virus A/Anhui/1/2005(H5N1)); assay: HA microarray, BCC supernatant
[10] = target: recombinant soluble homotrimeric HA of A/chicken/Vietnam/NCVD-016/08 (H5N1) (Influenza A virus …); assay: HA microarray, BCC supernatant
[11] = target: recombinant soluble homotrimeric HA of A/northern shoveler/California/HKWF115/07 (H6) (Influenza A virus A/northern …); assay: HA microarray, BCC supernatant
[12] = target: recombinant soluble homotrimeric HA of A/Netherlands/219/03 (H7N7) (Influenza A virus …); assay: HA microarray, BCC supernatant
[13] = target: recombinant soluble homotrimeric HA of A/duck/Yangzhou/02/05 (H8N4) (Influenza A virus …); assay: HA microarray, BCC supernatant
[14] = target: recombinant soluble homotrimeric HA of A/Hong Kong/2108/03 (H9N2) (Influenza A virus A/HK/2108/2003(H9N2)); assay: HA microarray, BCC supernatant
[15] = target: hemagglutinin on whole influenza A virions, A/Solomon Islands/3/06 H1N1 (Influenza A virus A/Solomon …); assay: cell-based or functional assay
[16] = target: hemagglutinin on whole influenza A virions, A/Wisconsin/67/05 H3N2 (Influenza A virus …); assay: cell-based or functional assay
[17] = target: recombinant trimeric HA of H1N1 A/California/04/09 (Influenza A virus A/California/04/2009 …)

B1: TCN-555 (5246_L16) (antibody, V domains shown)
VH: QVQLVQSGAEVKRPGSSVKVSCTASGGIFRKNAISWVRQAPGQGLEWMGGIIAVFNTANYAQKFQNRVKITADESGNTAYMELSSLTSDDTAVYYCASHPKYFYGSGSYPDFWGQGTLVTVSS
VL: QSALTQPRSVSGSPGQSITISCTGGSSDIGASNSVSWYQQHPGKAPKLVIFDVTERPSGVPHRFSGSKSGNTASLTVSGLQPDDEADYFCCAYGGKYLVVFGGGTKVTVL
B1 was tested, and the “% Neutralization” value [1] was 89%.

B2: TCN-553 (5261_C18) (antibody, V domains shown)
VH: QVQVVQSGTEVKKPGSSVKVSCQTSGGRFMSYAITWVRQAPGQGLEWMGGIVPVFGTANYAQKFQGRVTITTDDSTRTAYMELSSLRSEDTAVYYCGFRYGSGYGFDSWGQGTLVTVSS
VL: EIVLTQSPGTLSLSPGERATLSCRASQSVSSSYLAWYQKKPGQAPRLLIYGASTRATGIPDRFTGSGSGTDFTLSISRLEPEDFAVYYCQHFGTSVFTFGGGTKVEIK
In the case of B2, the “% Neutralization” value [1] is reported as 83%.

B3: TCN-545 (5082_I15) (antibody, V domains shown)
VH: QVQLQQWGAGLLKPSETLSLSCAVFGGSFSDYYWTWIRQPPGKGLEWIGEIKHSGRTNYNPSLESRVTISVDTSKNQFSLKLSSVTAADTAIYYCARGTDPDTEGYCRSGSCSAFDFWGQGTLVTVSS
VL: EIVLTQSPGTLSLSPGERATLSCRASHFVNYRSLAWYQQTPGQVPRLLIYGASTRATGIPDRFSGSGSGTDFTLTISRLEPEDFAVYFCQQYGGSPRYTFGQGTRLEIK
For B3, the “% Neutralization” value [1] was 0%.

B4: TCN-556 (5089_K12) (antibody, V domains shown)
VH: QVQLVQSGAEVKKPGASVKVSCKASGYTFIGYDMHWVRQAPGQGLEWMGWINAKRGGTNYAQKFQGRVTMTRDTSISTAYMELNSLRSDDTAVYYCARGVGSRTTIFGVLNPEFDYWGQGTLVTVSS
VL: QSALTQPPSASGSPGQSVTISCTGSSSDVGGYDYVSWYQQHPGKAPKLLIYEVTKRPSGVPDRFSGSKSGNTASLTVSGLQAEDEADYYCSSYAGNYNHVFGPGTKVTVL
In the case of B4, the “Trimeric HA Binding: RLU” value [2] is reported as 14600 RLU, the “Trimeric HA Binding: RLU” value [3] is reported as 2850 RLU and the “Trimeric HA Binding: RLU” value [4] is reported as 5610 RLU. The “Trimeric HA Binding: RLU” value [5] was 9320 RLU, the “Trimeric HA Binding: RLU” value [6] was 5600 RLU and the “Trimeric HA Binding: RLU” value [7] was 13800 RLU. For the same binder, the “Trimeric HA Binding: RLU” value [8] was 8450 RLU, the “Trimeric HA Binding: RLU” value [9] was 3700 RLU and the “Trimeric HA Binding: RLU” value [10] was 8800 RLU. For the same binder, the “Trimeric HA Binding: RLU” value [11] was 11900 RLU, the “Trimeric HA Binding: RLU” value [12] was 10600 RLU and the “Trimeric HA Binding: RLU” value [13] was 16900 RLU. The “Trimeric HA Binding: RLU” value [14] was 7410 RLU.

B5: TCN-554 (5277_M05) (antibody, V domains shown)
VH: QVQLVQSGADLKKPGASVKVSCKASGYTFTDYYIHWVRQAPGQGLEWMGWINPESGDTKYAQKFQGRVTMTRDTSITTAYMELGRLRSDDTAVYYCARDVSTTWSWFAPWGQGTLVTVSS
VL: DIVMTQSPDSLAVSLGERATINCRSSQSIFHNSNNENYLAWYQQKPGQPPKLLIYWASTRESGVPDRFSGSGSGTDFTLTISSLQAEDVAVYFCQQYYNAPLTFGGGTKVEIK
B5 was tested, and the “% Neutralization” value [1] was 0%.

B6: TCN-549 (5092_P04) (antibody, V domains shown)
VH: QVQLVQSGAEVKKPGASVKVSCKASGYTFTGYYMHWVRQAPGQGLEWMGWINPNSGDTNYAQKFQGRVTMTRDTSITTAYMELSSLRSDDTAVYYCARDSPYSSSWSFFDYWGQGPLVTVSS
VL: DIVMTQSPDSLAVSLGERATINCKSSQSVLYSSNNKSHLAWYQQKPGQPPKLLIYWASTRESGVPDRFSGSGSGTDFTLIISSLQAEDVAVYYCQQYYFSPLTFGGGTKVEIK
B6 was tested, and the “% Neutralization” value [15] was 0%, the “% Neutralization” value [16] was 100% and the “% Neutralization” value [1] was 0%.

B7: Fab fragment of TCN-533 (5256_A17a) (Fab, V domains shown)
VH: QVQLVQSGADVKKPGSSVTVSCKASGGSFSNYGINWVRQAPGQGLEWMGGIIPLINAPNYAPKFQGRVTITADMFSNIVSLQLTSLRTDDTAVYYCARRKMTTAIDYWGQGTLVTVSS
VL: QPVLTQPPSASASLGASVTLTCTLSSAYSNYKVDWYQQRPGKGPRFVMRVGTGGIVGSKGDGIPDRFSVLGSGLNRYLTIKNIQEEDESDYHCGADHGSGSNFVSPYVFGGGTKLTVL
For B7, the Kd [17] was 129 pM, the koff [17] was 8.2e-05 s⁻¹ and the kon [17] was 635000 M⁻¹ s⁻¹.

B8: TCN-548 (5092_P01) (antibody, V domains shown)
VH: QVQLQESGPGLVKPSETLSLTCTVSSGPMSDYYWSWIRQPPGKGLEWIGHVSVSHGGRTKSNPSVMSRVTISVETSKNQFSLKLTSVTAADTAVYYCARLNYYDRSGYHSPDGPSNNWFDPWGQGTLVTVSS
VL: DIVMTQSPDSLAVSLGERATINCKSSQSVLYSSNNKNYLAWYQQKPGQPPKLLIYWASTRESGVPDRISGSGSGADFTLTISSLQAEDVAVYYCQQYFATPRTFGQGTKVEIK
B8 was tested, and the “% Neutralization” value [15] was 0%, the “% Neutralization” value [16] was 96% and the “% Neutralization” value [1] was 0%.

B9: TCN-550 (5096_F06) (antibody, V domains shown)
VH: QVQLQESGPGLVKPSETLSLTCTVSGASINSHYWSWIRQPPGKGLEWIGYVYYSGSTTYNPSLKSRVTLSVDTSKNQFSLNLSSVTAADTAFYYCARHPYDVLTGSGDWFDPWGQGTLVTVSS
VL: SYVLTQAPSVSVAPGQTARITCGGNAIGSKKVHWYQHKAGQAPVLVVYDDTDRPSGIPERFSGSNSWSTATLTINRVEAGDEADYYCQVWDFTIDHVVFGGGTKLTVL
For B9, the “% Neutralization” value [1] was 0%.

B10: TCN-551 (5243_D01) (antibody, V domains shown)
VH: EVQLVQSGSEVKKPGESLKISCKGSGYSFSNYWIGWVRHMPGKGLEWMGIIYPGDSDTRYSPSFQGQVTMSADKSSSTVYLQWSSLKASDTAIYYCARRGGHSFGYGSGGDTHSEFDSWGQGTLVTVSS
VL: QSVLTQSPSVSAAPGQKVTISCSGSDSNIGDYFVCWYQHLPGKPPQLLIYENNKRPSGIPDRFSGSKSGTSATLGITGIQTGDEADYYCATWDGSLSAWVFGGGTKLTVL
With B10 the “% Neutralization” value [1] was 74%.

B11: TCN-552 (5249_I23) (antibody, V domains shown)
VH: QVQVVQSGAEVKKPGSSVRVSCQASGGTFMNYAIIWVRRAPGQGLEWMGGIIPVFPTPNYAQMFQGRVTISTDESRSTSFLELTNLRYEDTAVYYCARRIYHGGNSGFDFWGQGTLVTVSS
VL: EIVLTQSPATLSLSPGERATLSCRASQSVGNYLAWYQQKPGQAPRLLIYDSSNRAPGIPARFSGSGSGTDFTLTISSLAPEDFAVYYCQQRSKWPPMYSFGHGTKLEIK
For B11, the “% Neutralization” value [1] was 81%.

B12: TCN-557 (5081_A04) (antibody, V domains shown)
VH: QVQLVQSGAEVKKPGASVKVSCKASGHTFTGYYIHWVRQAPGQGLEWMGWINPDSGATSSAQNFQGRVTMTGDTSSSTAYMELSRLSFDDTAVYYCARVLFTSPFDFWGEGTLVTVSS
VL: QAVVTQEPSLAVSPGGTVTLTCGSSTGAVTRGHYPYWFQQKPGQAPRALIYDSAGNRHSWTPARFSGSLLGGKAALTLSGAQPEDEAEYYCLLSYSGVWVFGGGTKLTVL
B12 was tested, and the “% Neutralization” value [15] was 7%, the “% Neutralization” value [16] was 0% and the “% Neutralization” value [1] was 10%.

B13: TCN-544 (5082_A19) (antibody, V domains shown)
VH: QVQLQESGPGLVKPSETLSLTCTVSRGSIGHYFWSWIRQPPGKGLEWIGYISYSGSTKYNPSLRSRVTISVDTSKNQFSLNLNSVTATDTALYYCAREDYDILTGAGPGMEVWGQGTTVTVSS
VL: QSMLTQPPSASGTPGQRVTISCSGSSSNIGSNTVNWFKHLPGTAPKLLIYRNDLRPSGVPDRFSGSKSGTSASLAISGLQSEDEADYYCATWDDSLNGFYVFGTGTKVTVL
With B13 the “% Neutralization” value [1] was 0%.

B14: TCN-547 (5092_F11) (antibody, V domains shown)
VH: QVQLQESGPGLVKPSQTLSLTCTVSGDSISSVDHYWSWIRQHPVKGLEWIGFMYYSASTYYNPSLKSRVTISTDTSKNQFSLRLSSVTAADTAVYYCARGTCAGDCSLHYYYYGLDVWGQGRTVTVSS
VL: DIQMTQSPSSLSASVGDRVTITCRASQSISSYLNWYQHKPGKAPKVLMYAVSILQSGVPSRFSGSGSGADFTLTISSLQPEDFATYYCQQSYSSPLTFGGGTKVEIK
With B14 the “% Neutralization” value [15] was 0%, the “% Neutralization” value [16] was 88% and the “% Neutralization” value [1] was 0%.

B15: TCN-558 (5248_H10b) (antibody, V domains shown)
VH: QVQLVQSGSEVKKPGTSVKVSCTASGSVFTNYGISWVRQAPGQGLEWMGGIIPLFGAAKYAQKFQGRVTITADESTKTVYMELSRLTSKDTAIYFCAKAPRVYEYYFDQWGQGTPVTVSS
VL: EIVMTQFPATLSVSPGERVTLSCRASQSVSNNLAWYQQKPGQPPRLLIYDASTRATGVPAKFSGTGSGTEFTLSISSLQSEDFAVYYCQQYHNWPPSYSFGLGTKLEIK
For B15, the “% Neutralization” value [1] was 96%.

B16: TCN-543 (5081_G23) (antibody, V domains shown)
VH: QVHLVQSGAEVRKPGDSVKVSCKTSGYTFSTYPVAWVRQVPGQGLEWMGWISTYNGNTNFAQNFQGRVTLTTDTTTNTAYMEVRSLKFDDTAVYYCARVEGSYRDFWNNQNRFDPWGQGTLVTVSS
VL: SYVLTQPPSVSVAPGQTARISCGGSNIGGKSVHWYQQKPGQAPVLVVYDDSGRPSGIPERFSGSNSGDTATLTISRVEAGDEADYFCQVWDNFGGVFGTGTKVTVL
In the case of B16, the “% Neutralization” value [1] is reported as 0%.

From patent US20150086555A1 (THERACLONE SCIENCES, published 2015)
